Non-standard residues stand in square brackets, D forms with d. Residues, ends and D or L forms follow the SMILES beside them. No end group written: not given here. carboxyfluorescein = carboxyfluorescein label; pT = C[C@@H](OP(=O)(O)O)[C@H](N)C(=O)O
Key:
Cbk1(Y687A/T743E) = assay: Peptide kinase assay, Cbk1(Y687A/T743E); format: biochemical, Saccharomyces cerevisiae; conditions: for 32P incorporation into peptide, Average: Average of Rep 1-4, 100 μM peptide, 50 nM kinase, 40 μM ATP, 1 h
Description: (§1) For peptide kinase assays, reactions were performed in the presence of 50 nM Cbk1^251–756–Mob2, 40 μM ATP, 2 mM DTT, 5 mM MnCl2, 2 μCi γ-^32P-ATP, and 100 μM Docktide ([…]) or AKAPtide ([…]). Reactions were initiated by the addition of ATP. Samples were quenched after 1 h by the addition of a 5-μl sample to P81 paper (Whatman) and subsequent submersion in 75 mM phosphoric acid to remove background γ-^32P-ATP. After drying, signal was determined by Čerenkov counting in an LS 6500 scintillation counter (Beckman). Counts per minute was efficiency corrected and converted to femtomoles ^32P followed by conversion to total ATP (labeled and unlabeled). Significance was determined by an unpaired two-tailed Student’s t-test.
(§2) Supplementary file pbio.1002146.s003.xlsx: S3 Data Enzymological characterization of the effects of Cbk1 docking. Assay data from experiments that used γ-^32P-ATP in protein kinase reactions with synthetic substrate peptides from Ssd1 that either contained both the core Cbk1 docking motif and a Cbk1 phosphorylation consensus motif (Docktide) or contained a core Cbk1 docking motif mutated to abrogate binding to the kinase and a Cbk1 consensus motif (AKAPtide). These kinase assays were performed either with Cbk1(T743E) or with Cbk1(Y687A/T743E). The latter construct carries a mutation that eliminates docking motif association with the kinase. (XLSX) Click here for additional data file.

[1] = system: Cbk1^251–756–Mob2 (T743E); assay: Peptide kinase assay, WT Cbk1 (T743E); format: biochemical, Saccharomyces cerevisiae; conditions: for 32P incorporation into peptide, Average: Average of Rep 1-4, 100 μM peptide, 50 nM kinase, 40 μM ATP, 1 h
Description: as §1, §2

[2] = molecular target: pepAce2, carboxyfluorescein-labelled (S. cerevisiae); assay: fluorescence polarisation; direct titration: protein titrated into 20 nM carboxyfluorescein-labelled peptide; 20 mM Tris (pH 8.0), 100 mM NaCl, 0.05% Brij35P, 2 mM DTT; quadratic binding equation
Cbk1^Δ730–756–Mob2 = molecular target: T1, Cbk1^Δ730–756–Mob2 (Saccharomyces cerevisiae, UniProt P43563+P53894); assay: biochemical; format: binding
T1 construct: His6-Cbk1^251–756 was co-expressed with GST-Mob2 (full length or 45–287); His6 (N); made in house
T1 sequence (P43563 whole entry, stated change not applied, one chain of several): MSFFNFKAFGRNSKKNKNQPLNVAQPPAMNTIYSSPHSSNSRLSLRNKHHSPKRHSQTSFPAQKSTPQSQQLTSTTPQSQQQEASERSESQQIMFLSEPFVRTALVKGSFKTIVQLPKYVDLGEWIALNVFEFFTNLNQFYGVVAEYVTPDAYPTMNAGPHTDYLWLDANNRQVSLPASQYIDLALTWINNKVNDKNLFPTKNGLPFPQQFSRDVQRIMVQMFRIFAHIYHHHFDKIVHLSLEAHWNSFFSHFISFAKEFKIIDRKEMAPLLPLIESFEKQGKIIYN
Excerpt: ND, not determined. […] (PDF) Click here for additional data file.

[3] = molecular target: T2, Cbk1(D475A/T743E), residues 251-756 (S. cerevisiae, UniProt P53894 251-756, D475A | T743E); assay: crystal structure; Cbk1(D475A) or Cbk1(D475A/T743E) with Mob2, tags cleaved, 4–6 mg/ml, 2 mM AMPPNP, 2 mM MgCl2, 2 mM TCEP; microbatch under oil at 23°C; three crystal forms; conditions: both partners purified
T2 construct: two crystal forms (A, 4.5 Å; B, 3.6 Å); also called Cbk1(HM-E); Cbk1(T743E); source: bacterially expressed with Mob2, purified (Ni-NTA, glutathione Sepharose, TEV cleavage, Resource S); not shown: His6, N-terminal, cleaved
T2 sequence (looked up): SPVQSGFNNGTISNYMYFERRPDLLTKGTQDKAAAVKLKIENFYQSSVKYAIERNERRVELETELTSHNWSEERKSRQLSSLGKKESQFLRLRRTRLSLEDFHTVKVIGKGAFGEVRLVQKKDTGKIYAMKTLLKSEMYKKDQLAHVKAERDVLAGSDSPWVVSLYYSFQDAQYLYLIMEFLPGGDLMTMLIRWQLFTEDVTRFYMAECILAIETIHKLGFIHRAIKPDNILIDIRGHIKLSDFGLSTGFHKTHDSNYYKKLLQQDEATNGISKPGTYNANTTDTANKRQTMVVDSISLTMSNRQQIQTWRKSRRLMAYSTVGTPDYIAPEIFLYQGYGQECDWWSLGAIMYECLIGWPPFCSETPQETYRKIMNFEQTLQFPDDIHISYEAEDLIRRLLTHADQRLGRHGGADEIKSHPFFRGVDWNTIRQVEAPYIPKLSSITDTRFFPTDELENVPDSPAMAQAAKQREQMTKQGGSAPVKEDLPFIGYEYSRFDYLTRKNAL

[4] = molecular target: T3, Cbk1(D475A), residues 251-756, intact hydrophobic motif (S. cerevisiae, UniProt P53894 251-756, D475A); assay: as above; conditions: both partners purified
T3 construct: crystallised with AMPPNP; also called Cbk1(HM-T); source: bacterially expressed with Mob2, purified (Ni-NTA, glutathione Sepharose, TEV cleavage, Resource S); not shown: His6, N-terminal, cleaved
T3 sequence (looked up): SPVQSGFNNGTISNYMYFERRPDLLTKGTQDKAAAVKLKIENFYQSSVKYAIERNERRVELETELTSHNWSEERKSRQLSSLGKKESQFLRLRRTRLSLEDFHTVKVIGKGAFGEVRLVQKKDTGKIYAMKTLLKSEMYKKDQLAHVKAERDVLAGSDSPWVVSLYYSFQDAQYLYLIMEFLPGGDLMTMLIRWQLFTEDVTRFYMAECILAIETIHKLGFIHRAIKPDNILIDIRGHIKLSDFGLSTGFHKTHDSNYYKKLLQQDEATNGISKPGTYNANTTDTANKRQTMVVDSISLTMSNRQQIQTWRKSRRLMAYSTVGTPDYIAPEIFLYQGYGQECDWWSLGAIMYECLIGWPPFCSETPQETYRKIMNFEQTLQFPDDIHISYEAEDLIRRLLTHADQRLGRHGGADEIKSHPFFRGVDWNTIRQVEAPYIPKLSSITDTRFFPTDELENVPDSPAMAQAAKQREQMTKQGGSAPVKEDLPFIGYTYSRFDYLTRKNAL

Cbk1(Y687A)–Mob2 complex = Cbk1(Y687A)–Mob2 complex (S. cerevisiae, UniProt P53894 251-756; P43563 1-287, Y687A); assay: FP
Cbk1(Y687A)–Mob2 complex, sequence (P53894 251-756 Y687A, chain 1 of 2, one chain of several): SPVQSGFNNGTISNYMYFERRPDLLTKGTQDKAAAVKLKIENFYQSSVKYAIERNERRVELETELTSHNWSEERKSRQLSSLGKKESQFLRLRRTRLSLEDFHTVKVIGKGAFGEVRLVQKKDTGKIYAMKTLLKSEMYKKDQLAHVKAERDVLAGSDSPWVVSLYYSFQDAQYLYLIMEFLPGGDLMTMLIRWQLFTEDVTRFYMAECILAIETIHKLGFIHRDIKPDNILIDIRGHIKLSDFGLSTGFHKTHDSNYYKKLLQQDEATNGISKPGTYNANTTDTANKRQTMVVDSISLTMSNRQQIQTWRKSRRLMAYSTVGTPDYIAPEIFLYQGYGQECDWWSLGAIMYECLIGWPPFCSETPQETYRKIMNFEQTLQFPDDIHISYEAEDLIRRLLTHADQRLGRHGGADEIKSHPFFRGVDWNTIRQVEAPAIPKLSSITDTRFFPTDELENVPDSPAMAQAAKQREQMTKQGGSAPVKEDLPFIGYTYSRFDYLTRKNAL

Cbk1(W444A)–Mob2 complex = Cbk1(W444A)–Mob2 complex (S. cerevisiae, UniProt P53894 251-756; P43563 1-287, W444A); assay: FP
Cbk1(W444A)–Mob2 complex, sequence (P53894 251-756 W444A, chain 1 of 2, one chain of several): as the sequence (P53894 251-756 Y687A, chain 1 of 2, one chain of several) above, with W194A, A437Y counted along it

[5] = molecular target: T4, Cbk1^251–756–Mob2 complex (S. cerevisiae, UniProt P53894 251-756; P43563 1-287); assay: FP
T4 chain 1: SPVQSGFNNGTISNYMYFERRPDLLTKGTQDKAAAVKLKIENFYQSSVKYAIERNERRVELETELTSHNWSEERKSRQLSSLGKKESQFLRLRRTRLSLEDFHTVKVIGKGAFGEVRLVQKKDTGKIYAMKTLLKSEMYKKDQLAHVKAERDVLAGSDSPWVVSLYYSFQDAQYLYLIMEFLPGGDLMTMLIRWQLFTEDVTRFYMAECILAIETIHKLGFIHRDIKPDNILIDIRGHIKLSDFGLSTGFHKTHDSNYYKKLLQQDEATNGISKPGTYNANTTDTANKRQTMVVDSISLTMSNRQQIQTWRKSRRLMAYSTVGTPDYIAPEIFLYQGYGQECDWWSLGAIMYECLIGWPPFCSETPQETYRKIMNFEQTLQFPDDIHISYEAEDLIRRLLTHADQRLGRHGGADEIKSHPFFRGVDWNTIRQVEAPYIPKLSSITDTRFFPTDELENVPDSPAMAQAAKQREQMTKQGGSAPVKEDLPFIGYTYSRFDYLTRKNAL
T4 chain 2: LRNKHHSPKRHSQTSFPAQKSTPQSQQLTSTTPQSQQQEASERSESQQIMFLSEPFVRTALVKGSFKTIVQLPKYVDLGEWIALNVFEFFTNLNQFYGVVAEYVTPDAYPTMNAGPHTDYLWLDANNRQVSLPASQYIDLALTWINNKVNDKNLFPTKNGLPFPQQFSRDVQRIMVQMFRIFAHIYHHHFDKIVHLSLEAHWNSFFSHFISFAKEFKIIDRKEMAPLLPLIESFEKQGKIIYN

Cbk1(F699A)–Mob2 complex = Cbk1(F699A)–Mob2 complex (S. cerevisiae, UniProt P53894 251-756; P43563 1-287, F699A); assay: FP
Cbk1(F447A)–Mob2 complex = Cbk1(F447A)–Mob2 complex (S. cerevisiae, UniProt P53894 251-756; P43563 1-287, F447A); assay: FP
Cbk1(F447A)–Mob2 complex, sequence (P53894 251-756 F447A, chain 1 of 2, one chain of several): as the sequence (P53894 251-756 Y687A, chain 1 of 2, one chain of several) above, with F197A, A437Y counted along it

[6] = molecular target: T5, Cbk1^352–756 kinase domain (S. cerevisiae, UniProt P53894 352-756); assay: pull-down; pull-down of Cbk1^352–756 by bead-bound Ace2 or Ssd1 docking motifs in competition with unbound Ace2^270–290; conditions: both partners purified
T5 construct: source: bacterially expressed, purified (Ni-NTA, glutathione Sepharose); not shown: His6, C-terminal, kept
T5 sequence (looked up): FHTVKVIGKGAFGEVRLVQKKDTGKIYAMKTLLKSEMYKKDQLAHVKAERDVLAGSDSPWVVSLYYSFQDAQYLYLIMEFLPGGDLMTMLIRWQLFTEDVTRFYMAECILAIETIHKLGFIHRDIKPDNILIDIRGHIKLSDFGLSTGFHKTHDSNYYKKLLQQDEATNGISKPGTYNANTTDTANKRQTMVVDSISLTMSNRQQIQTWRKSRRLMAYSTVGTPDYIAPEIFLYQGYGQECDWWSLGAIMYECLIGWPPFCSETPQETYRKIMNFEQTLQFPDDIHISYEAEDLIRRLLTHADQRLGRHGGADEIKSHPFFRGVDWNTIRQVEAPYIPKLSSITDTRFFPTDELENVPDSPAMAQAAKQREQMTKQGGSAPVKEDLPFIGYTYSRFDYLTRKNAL

[7] = molecular target: T6, Cbk1^352–692 kinase domain (S. cerevisiae, UniProt P53894 352-692); assay: pull-down; MBP fusions on amylose beads incubated with 1 μM purified Cbk1 on ice for 15 min, washed 3× with PBS; GelCode Blue or immunoblot (His or pS570 antibodies); conditions: both partners purified
T6 construct: also called catalytic domain alone; source: bacterially expressed, purified (Ni-NTA, glutathione Sepharose); not shown: His6, C-terminal, kept
T6 sequence (looked up): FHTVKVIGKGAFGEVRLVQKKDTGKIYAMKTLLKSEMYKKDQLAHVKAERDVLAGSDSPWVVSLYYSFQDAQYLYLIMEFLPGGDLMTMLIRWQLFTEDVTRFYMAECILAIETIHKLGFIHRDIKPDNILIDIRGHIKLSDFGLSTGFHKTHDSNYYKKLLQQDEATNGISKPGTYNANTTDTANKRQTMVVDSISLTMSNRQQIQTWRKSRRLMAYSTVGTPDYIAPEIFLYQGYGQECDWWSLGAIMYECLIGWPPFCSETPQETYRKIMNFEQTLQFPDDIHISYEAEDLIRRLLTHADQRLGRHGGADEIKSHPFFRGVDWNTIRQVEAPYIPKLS

“CDFKFPPPPNAHGGHRRATSN [Docktide, Ssd1 (210–229)-based peptide with docking motif FKFP and Cbk1 consensus site]” was tested, and the “32P incorporation into peptide, Average” value (Cbk1(Y687A/T743E)) was 45.9 fmol, the “effect of WT docking motif on phosphorylation” value (Cbk1(Y687A/T743E); Cbk1(Y687A)) was “loses this enhancement” and the “32P incorporation into peptide, Average” value [1] was 76.8 fmol. For the same molecule, the “effect of WT docking motif on phosphorylation” value ([1]; relative to peptide with mutant docking motif (AKAPtide)) was “enhances phosphorylation by WT Cbk1”.

Molecule “Cbk1^251–756–Mob2 complex (from UniProt P53894 251-756; P43563 1-287)” has a Kd [2] of 6 µM.

“CDAKAPPPPNAHGGHRRATSN [AKAPtide, Ssd1-based peptide with mutated docking motif AKAP and Cbk1 consensus site]” was tested, and the “32P incorporation into peptide, Average” value (Cbk1(Y687A/T743E)) was 45.5 fmol and the “32P incorporation into peptide, Average” value [1] was 57.4 fmol.

In the case of `CC[C@H](C)[C@H](N)C(=O)NCC(=O)N[C@@H](Cc1ccc(O)cc1)C(=O)N[C@H](C(=O)N[C@@H](Cc1ccc(O)cc1)C(=O)N[C@@H](CO)C(=O)N[C@@H](CCCNC(=N)N)C(=O)N[C@@H](Cc1ccccc1)C(=O)N[C@@H](CC(=O)O)C(=O)N[C@@H](Cc1ccc(O)cc1)C(=O)O)[C@@H](C)O` [pepHM] (H-IGYTYSRFDY-OH), the Kd (Cbk1^Δ730–756–Mob2) is reported as about 33 µM.

B1: Mob2, residues 45-287 (natural protein, S. cerevisiae, UniProt P43563 45-287, looked up)
chain: LRNKHHSPKRHSQTSFPAQKSTPQSQQLTSTTPQSQQQEASERSESQQIMFLSEPFVRTALVKGSFKTIVQLPKYVDLGEWIALNVFEFFTNLNQFYGVVAEYVTPDAYPTMNAGPHTDYLWLDANNRQVSLPASQYIDLALTWINNKVNDKNLFPTKNGLPFPQQFSRDVQRIMVQMFRIFAHIYHHHFDKIVHLSLEAHWNSFFSHFISFAKEFKIIDRKEMAPLLPLIESFEKQGKIIYN
notes: the crystallised construct begins at 45 (N-terminal Mob2 region 45-110 not seen in the density); source: bacterially expressed with Cbk1, purified (Ni-NTA, glutathione Sepharose, TEV cleavage, Resource S); not shown: GST, N-terminal, cleaved
B1: binds [3]; binds [4].

B2: pepHM-P, carboxyfluorescein-labelled (peptide)
peptide: IGY[pT]YSRFDY-carboxyfluorescein
Molecule B2 has a Kd (Cbk1(Y687A)–Mob2 complex) of 22 µM, a Kd (Cbk1(W444A)–Mob2 complex) of 24 µM and a Kd [5] of 20 µM. It also gave a Kd (Cbk1(F699A)–Mob2 complex) of 28 µM and a Kd (Cbk1(F447A)–Mob2 complex) of 33 µM.

B3: unbound Ace2^270–290 (domain or fragment, S. cerevisiae, UniProt P21192 270-290, looked up)
chain: NAIIVTTNSANGGYQFPPPTL
B3: binds [6].

B4: pepSSD1, carboxyfluorescein-labelled (peptide)
peptide: carboxyfluorescein-TTEQSDFKFP
Molecule B4 has a Kd (Cbk1(Y687A)–Mob2 complex) of 36 µM, a Kd (Cbk1(W444A)–Mob2 complex) of 58 µM and a Kd [5] of 6 µM. It also gave a Kd (Cbk1(F699A)–Mob2 complex) of 4.9 µM.

B5: Ace2^270–290 docking motif, MBP fusion (domain or fragment, S. cerevisiae, UniProt P21192 270-290, looked up)
chain: NAIIVTTNSANGGYQFPPPTL
notes: Ace2 of budding yeast, residues 270-290; also called WT Ace2 (two glycine residues)
B5: binds [7]; binds [6].

Source: paper PMC4428629, “The Structure of an NDR/LATS Kinase–Mob Complex Reveals a Novel Kinase–Coactivator System and Substrate Docking Mechanism” (PLoS Biology, 2015)
